Entries after “also recorded” stand apart in the source; their conditions may differ.

This assay concerns ILT3 and ILT4 on monocytes and DCs. The experiment in a line: Flow cytometry of ILT3, ILT4 and costimulatory molecules on APCs. In kind it is cell-based, human. Particulars: for ILT3 and ILT4 expression on APC (monocytes and dendritic cells): treatment of APC. On the procedure: To study the expression of ILT3 or ILT4 and costimulatory molecules on normal APCs from peripheral blood or spleen cell suspensions, APCs were incubated with TS cells for 18 h with or without CD40L-transfected D1.1 cells (see Results). The cells were then collected, washed and saturating amounts of mAbs to ILT3 or ILT4 were added (21, 22). After 30 min on ice, cells were washed twice, stained with PE-goat-anti-mouse or PE-goat-anti-rat (Caltech, Burlingame, Calif.), then washed twice again, incubated with mouse or rat IgG (as a blocking antibody, Vector Labs, Burlingame, Calif.), washed twice, then stained with mAbs to FITC-CD14 or cychrome-CD11c, FITC-HLA-DR and PerCP-CD3 (Pharmingen, San Diego, Calif.). In other samples, mAbs to PE-CD80 and PE-CD86 were added along with markers for monocytes and DCs. CD3^+ T cells were gated-out and CD14^+ monocytes or CD14^− CD11c^+HLA-DR^+ immature DCs were analyzed with CellQuest software on a G4 Apple Macintosh Computer. Annexin V and PI staining of target APCs was done as described (12). Five parameter analyses (forward scatter, side scatter and three fluorescence channels) were used for list mode data analysis. The FL3 channel was used as a fluorescence trigger and FL1 and FL2 as analysis parameters.
On the technique in general: In flow cytometry, cells or beads pass a laser one at a time.

TNF-alpha: the “ILT3 and ILT4 expression on APC (monocytes and dendritic cells)” value is reported as “increase the expression”.

B1: IL-10: Interleukin 10, immunoregulatory cytokine (protein, UniProt P22301 19-178, looked up)
Interleukin-10: SPGQGTQSENSCTHFPGNLPNMLRDLRDAFSRVKTFFQMKDQLDNLLLKESLLEDFKGYLGCQALSEMIQFYLEEVMPQAENQDPDIKAHVNSLGENLKTLRLRLRRCHRFLPCENKSKAVEQVKNAFNKLQEKGIYKAMSEFDIFINYIEAYMTMKIRN
As to B1, the “ILT3 and ILT4 expression on APC (monocytes and dendritic cells)” value is on record as “induces upregulation; also recorded: increase the expression”. Further, where the note is “within 20 h of incubation”, the “CD86 expression on human monocytes and DCs” value is on record as “down-regulated”; the “expression of ILT3 and ILT4 on the membranes of human monocytes and DCs” value was “up-regulated”.
